Source: PMC4509860 (Nature chemical biology, 2015)
No end group written: not given here. *: point of attachment. FITC = O=C1OC2(c3ccc(O)cc3Oc3cc(O)ccc32)c2ccc(NC(=S)*)cc21; Ahx = NCCCCCC(=O)O

B3: FITC-labeled TbtA leader peptide (peptide)
chain: SRRGSMLNLSDLPMDVFEMADSGMEVESLTAGHGMPEVGA
modifications: not fully specified (N-terminus); also: FITC label

Tests used:
Experiment in all cases: fluorescence polarisation
[1] = target: B3
[2] = target: TbtF/G (Thermobispora bispora)
[3] = target: TbtF D19A (Thermobispora bispora)
[4] = target: TbtF L24A (Thermobispora bispora)
[5] = target: TbtF V30A (Thermobispora bispora)
[6] = target: TbtF F68A (Thermobispora bispora)
[7] = target: TbtF R71A (Thermobispora bispora)
[8] = target: TbtF Q74A (Thermobispora bispora)
[9] = target: CurC wild-type (Corynebacterium urealyticum DSM 7109)
[10] = target: FITC-labeled StmA leader peptide (Streptomonospora alba, N-terminal FITC-Ahx (fluorescein isothiocyanate with an amino hexyl linker))
[11] = target: HcaF wild-type (Bacillus sp. Al Hakam)
[12] = target: HcaF D21A (Bacillus sp. Al Hakam)
[13] = target: HcaF F35A (Bacillus sp. Al Hakam)

B1: TbtF wild-type (natural protein)
chain: MIPARPVLTPGVRYAPTSDGVAFLTRDGIVSITGVSIHRWIDRIAPHLTGERSVAELTDGLAPERRAFVLRLLQALADRGLIIDAAGGREPRLERGTACALHVTETCGPYRESLPKLARSLADALTRAGLDVRLASASEPCDPERCHALVHLTAADEVGLAAAERLDRLSERWGVPIAHVVVWGGEIWRTEAGTVGEDGLPLAAGWRRLTALRPDTEERVPISPTAAVVVAGQVAADVRDRLTTATRAGRRPRLHVVEPARLTCRAHHFIPHFHTMPLTGDAPLAEELTEEEFSRRAAALMDDRTGVFTEIAEGDFGQLPLHVAVTTVADPVGLLGPAGDRPRVIGVGPDFATARYRTARAAIALYGLLAVDPRRLVDADGEPLAGPRTSAAELEDLLGRIRAGGLPAFVRAEDVRGGPPRLLPASSVFPFATARALLAGTVPTGTAVGYSEEGALRAALLDHCRERTLADLASRRVARLTPDTAPSDPVTARYLAFLRAIGLPFDVLDATGPLGVPVYVGVLDGRVVAAEAGASPGEAFRSVLEGILRGLQGIPAARSLPDTLPPVLPEAMAVPDGSPLSAEALAAALARAGLSVSVVRLDHDRRVHALIPHCVRVMVTGEESAHV
Question: For B1, which Kd [1] is on record?
Answer: 0.066 µM

B2: TbtF R79A (natural protein)
chain: MIPARPVLTPGVRYAPTSDGVAFLTRDGIVSITGVSIHRWIDRIAPHLTGERSVAELTDGLAPERRAFVLRLLQALADAGLIIDAAGGREPRLERGTACALHVTETCGPYRESLPKLARSLADALTRAGLDVRLASASEPCDPERCHALVHLTAADEVGLAAAERLDRLSERWGVPIAHVVVWGGEIWRTEAGTVGEDGLPLAAGWRRLTALRPDTEERVPISPTAAVVVAGQVAADVRDRLTTATRAGRRPRLHVVEPARLTCRAHHFIPHFHTMPLTGDAPLAEELTEEEFSRRAAALMDDRTGVFTEIAEGDFGQLPLHVAVTTVADPVGLLGPAGDRPRVIGVGPDFATARYRTARAAIALYGLLAVDPRRLVDADGEPLAGPRTSAAELEDLLGRIRAGGLPAFVRAEDVRGGPPRLLPASSVFPFATARALLAGTVPTGTAVGYSEEGALRAALLDHCRERTLADLASRRVARLTPDTAPSDPVTARYLAFLRAIGLPFDVLDATGPLGVPVYVGVLDGRVVAAEAGASPGEAFRSVLEGILRGLQGIPAARSLPDTLPPVLPEAMAVPDGSPLSAEALAAALARAGLSVSVVRLDHDRRVHALIPHCVRVMVTGEESAHV
Question: B2 was tested. Which Kd [1] did it give?
Answer: 0.079 µM

Question: With B3 as the binder, how does the Kd [2] read?
Answer: 0.066 µM

Question: And the Kd [3]?
Answer: 0.057 µM

Question: And the Kd [4]?
Answer: 0.065 µM

Question: And the Kd [5]?
Answer: 0.21 µM

Question: And the Kd [6]?
Answer: 7.7 µM

Question: What about the Kd [7] of the same binder?
Answer: 0.19 µM

Question: And the Kd [8]?
Answer: 0.049 µM

Question: For {FITC-Ahx}-GMSTLISKLPPAVSTDSSKIVSEVQAFEPT [FITC-labeled CurA leader], which Kd [9] is on record?
Answer: 7 µM

B4: StmE L73A (natural protein)
chain: MRPNVQIVSRDGDNFVLNLRNGEYWHLNSSAYTMLTRIADGETVDEVARDISAATSAPEQTVRDDLTEAVDQLRKAKLVEVRHS
Question: For B4, which Kd [10] is on record?
Answer: > 10 µM

B5: TbtG wild-type (enzyme)
chain: MSDALAAAIIGAGLLADELAAAFRPYGEVIRLDEVERAETEAHRLRALVMACDGWDTSIYRETRERCRRLGIPWLPVRTEHGIAVIGPLERPGEPGCAHCFELRRERARPDAAAYRAILNHHGPELAKRPSPYLDELAAATIAALGVRMIDQGSGCHVWYVRLNGLTVERHAFLPEPLCPECGSLPMDDRDSAVIVLRSQPKRAPDDYRTRDIVDELDALVADYVDGESGLIRPLVRDTQGGLVIAGAMLPLRFAGGSEPGVGRTRGYRTSEVTAILEALERWGGVEPGGKRTVIRAAFRDIAADALDPRTLGVHSPEAYAAEDFPFRPFTEDEETEWVWGYSFARRSPILVPETVAYYYVHRDRPRQERPFLYEISNGCALGSGMEEAILYGILEVVERDAFLMTWYGRLGVPRIDLDSAKNRMVPLQAAAISAETGYRIEVYDTTMEHGIPSVWALAIRGGEEPTAAPRPRMVCAAAAHLDPEQAVLSALSELGPLLADLLRRYPDEAERARRMVDDPGLVTTMHDHSTLYGADEAFGRLEFLTGTASTRDLAAMRESTVAFRSADLRDDLLEVIGRILAEGMDVIVVDQTTPEHRVHGFTCVKVLIPGMIPMTFGHRNRRLDGLTRPLVIPYRLGYRPAPLTPEALNPHPHPFP
Question: With B5 as the binder, how does the Kd [1] read?
Answer: > 10 µM

Question: For SGSMNQFQQELQSLNLNDYQTGNVVYWDPQQSQYPYYYIQDDAR (not fully specified (N-terminus); also: FITC label) [FITC-labeled HcaA leader peptide], which Kd [11] is on record?
Answer: 0.089 µM

Question: What about the Kd [12] of the same binder?
Answer: 0.13 µM

Question: And the Kd [13]?
Answer: 1.7 µM
